From US20170073659

Molecular target: GFP-KRS

B1: caspase-8 (protein)
chain: MDFSRNLYDIGEQLDSEDLASLKFLSLDYIPQRKQEPIKDALMLFQRLQEKRMLEESNLSFLKELLFRINRLDLLITYLNTRKEEMERELQTPGRAQISAYRVMLYQISEEVSRSELRSFKFLLQEEISKCKLDDDMNLLDIFIEMEKRVILGEGKLDILKRVCAQINKSLLKIINDYEEFSKERSSSLEGSPDEFSNGEELCGVMTISDSPREQDSESQTLDKVYQMKSKPRGYCLIINNHNFAKAREKVPKLHSIRDRNGTHLDAGALTTTFEELHFEIKPHDDCTVEQIYEILKIYQLMDHSNMDCFICCILSHGDKGIIYGTDGQEAPIYELTSQFTGLKCPSLAGKPKVFFIQACQGDNYQKGIPVETDSEEQPYLEMDLSSPQTRYIPDEADFLLGMATVNNCVSYRNPAEGTWYIQSLCQSLRERCPRGDDILTILTEVNYEVSNKDDKKNMGKQMPQPTFTLRKKLVFPSD
For B1, the “amount of KRS cleaved after caspase-8 overexpression (western blot with anti-GFP antibody)” value was “the amount of KRS cleaved was increased with the increasing amount of caspase-8”.
